Several values for one entry are separate records, joined by “and”; a condition that tells them apart may be missing. Equal entries are not always repeated. Where two headings read alike, the source gives them in different places.
Key:
Type in all cases: cell-based
HTB-186 cells [1] = assay: Caspase 3/7 assay (Example 10, Table 8); conditions: 32 J/cm^2, probe about 5 hours, 20 hours post irradiation; 700DX-RGD and 700DX-EGF 500 nM
Experimental: (§1) This example illustrates the ability of IRDye® 700DX small molecule conjugates to induce apoptosis in cells, e.g., cancer cells. In this study HTB-186 cells (a desmoplastic cerebellar medulloblastoma cell line) were treated with IRDye® 700DX small molecule conjugates (IRDye® 700DX labeled chlorotoxin, anti-EGFR Affibody®, RGD peptide and EGF ligand). Apoptosis was measured by evaluating caspase 3/7 activity and mitochondrial membrane potential. […]
The caspase 3/7 assay was used to measure caspase 3/7 activity in the cells from the treatments listed above. […] Upon activation, the caspases cleave the substrate, and in turn, a fluorescence signal is emitted. […] The fluorescence can be detected by, for example, flow cytometry, fluorescence microscopy, and fluorescence-based image cytometry.
To determine whether the treated cells are undergoing apoptosis, a caspase 3/7 assay and mitochondrial potential assay were performed. […] Table 8 below provides cells number, % viability, JC-1% shift, and % late apoptotic and dead cells as determined by caspase 3/7 assay.

A431 cells [2] = assay: Caspase 3/7 assay, doses of IRDye 700DX-labeled EGF (Table 4)
Experimental: A431 cells were treated with IRDye® 700DX-labeled EGF at a concentration of about 0.1-1 μM for about 8 minutes and irradiated at about 32 J/cm^2.
Briefly, 150,000 cells were plated and incubated overnight at 37° C., 5% CO2. About 1 ml of the probe was added to the appropriate treatments. The cells were rinsed after the incubation period and imaged. The cells were irradiated with a small LED apparatus. The cells were further incubated at 37° C., 5% CO2, and then imaged at 2-3 hours post irradiation. The cells were then harvested and resuspended in 250 μl PBS. The cells were counted in NC-100™ NucleoCounter® (ChemoMetec A/S; Allerod, Denmark). The cells were analyzed according to manufacturer's protocol to perform the caspase3/7 assay (ImmunoChemistry Technologies, LCC, Bloomington, Minn.). NC indicates negative control, e.g., no probe.

A431 cells [3] = assay: Cytotoxicity and localization of antibody probe versus small protein ligand probe after irradiation (Example 4)
Experimental: Both probes can bind EGFR and had approximately 2 dye molecule per conjugate molecule. It was assumed that the affinity for the receptor will be different for the antibody (generally pM), compared to the small protein (nM). Although the probe doses were different, the incubation times were the same at only 10 min. After incubation, the probes were rinsed from the cells. FIGS. 7A and 7B illustrates A431 cells that were incubated with IRDye 700DX-panitumumab or IRDye 700DX-EGF, respectively and thereafter irradiated.
Thus, upon irradiation, the production of singlet oxygen occurred at the cell surface. Typically, the EGF ligand is internalized after binding the EGF receptor.

A431 cells [4] = assay: Photodynamic therapy effect on cell morphology and viability (Example 3); conditions: for effect on cell morphology: probe 0.25 μM
Excerpt: This example illustrates the effect of photodynamic therapy based on IRDye® 700DX dye conjugates on cell morphology. Other methods for evaluating changes in morphology during the PDT with additional tests of key apoptotic markers including caspase 3/7, annexin-V, vitality %, mitochondrial potential, localization (intracellular/membrane, endosomal, lysosomal), singlet oxygen generation, other radicals, etc. It was critical to identify important parameters for generating reproducible effects including irradiation level, incubation time, probe type and/or required dose to initiate cytotoxicity. By measuring these key indicators the actions of IRDye® 700DX in its ability to induce cytotoxicity was defined.
FIGS. 6A-6B provide images of the controls which were A431 cells with no irradiation (NI) or with irradiation (I). The probe dose for the respective treatments was 0.25 μM and irradiation level was 16 J/cm^2. […] These are key features of cells undergoing apoptosis and/or necrosis.

HTB-186 cells [5] = assay: JC-1 mitochondrial membrane potential assay (Example 10, Table 8); conditions: 32 J/cm^2, probe about 5 hours, 20 hours post irradiation; 700DX-RGD and 700DX-EGF 500 nM
Experimental: as §1
In this study a mitochondrial membrane potential assay was performed on cells from treatments 1-8 to determine whether the treated cells underwent apoptosis. […] As JC-1 dye accumulated in mitochondria, its fluorescence emission shifts from green (about 529 nm) to red (about 590 nm). The presence of red fluorescence due to JC-1 aggregate formation corresponds to regions of high mitochondrial polarization. Depolarized mitochondria are indicated by green fluorescence of the JC-1 monomers. A detectable decrease in the red/green fluorescence intensity ratio indicates mitochondrial depolarization, and thus, apoptosis. In a membrane potential assay, cells are incubated with the JC-1 dye and fluorescence is detected by, for example, flow cytometry, fluorescence microscopy, and fluorescence-based image cytometry. […]

HTB-186 cells [6] = assay: Viability, cell number and microscopy morphology at 20 h post irradiation (Example 10)
Experimental: This example illustrates the ability of IRDye® 700DX small molecule conjugates to induce apoptosis in cells, e.g., cancer cells. In this study HTB-186 cells (a desmoplastic cerebellar medulloblastoma cell line) were treated with IRDye® 700DX small molecule conjugates (IRDye® 700DX labeled chlorotoxin, anti-EGFR Affibody®, RGD peptide and EGF ligand). Apoptosis was measured by evaluating caspase 3/7 activity and mitochondrial membrane potential. Apoptosis can be characterized by a variety of cell morphological and biochemical changes including membrane blebbing, cell shrinkage, alteration of membrane asymmetry and permeability, and/or condensation of chromatin and nucleus (Coleman et al., Nat Cell Biol, 2001, 3(4):339-45, Bortner and Cidlowski, Biochem Pharmacol, 1998, 56(12):1549-59; van Engeland et al., Experimental Cell Research, 1997, 235:421-430).
Microscopy images of cells in petri-dishes were captured at 20 h post irradiation. The images were captured in DIC and 700 nm to visualize the probe, and composite images were generated (DIC+700 nm) to visualize the overlay.
To determine whether the treated cells are undergoing apoptosis, a caspase 3/7 assay and mitochondrial potential assay were performed. All cells from each treatment were recovered and processed accordingly. Table 8 below provides cells number, % viability, JC-1% shift, and % late apoptotic and dead cells as determined by caspase 3/7 assay.

A431 cells [7] = test system: A431 cells
Experimental: A different LED source was tested and evaluated to determine if a second source of LED would yield a similar effect as the standard LED used. A straight forward evaluation was set up with four treatments (treatments A-D). The tests were performed in triplicate in order to examine reproducibility. The test included the following four treatments: treatment A of no probe and irradiation, treatment B of IRdye® 700DX-labeled EGF and no irradiation, treatment C of IRDye® 700DX-labeled EGF and irradiation, and treatment D of IRDye® 700DX-labeled panitumumab and irradiation. The probe dose was about 0.1 μM labeled panitumumab and 0.5 μM 700DX-labeled EGF. Irradiation was for 10 minutes at an irradiation dose of 32 J/cm^2.
Significant and similar effects for both probes together and in triplicate thus providing clear evidence that IRDye® 700DX-labeled small protein can kill cells similarly to an IRDye 700DX-labeled antibody. Conditions for use of either probe may be unique to the individual probe. […] The fluorescent scale of the 700 nm images was the same for both treated sets of cells (FIGS. 12C-12D). Although the exact concentration of the antibody probe is not known, the signals from the different probes appear similar in level and intensity.

A431 cells [8] = assay: VB-48 assay: vitality, viability and necrosis of treatments 1-10 (Table 3); conditions: irradiated (I) 32 J/cm^2; RGD 0.5 μM, EGF 0.5 μM, NHSe 5 μM, Pan ~0.1 μM
Experimental: Briefly, A431 cells were labeled with respective probes for specific treatments (listed below); cells were rinsed and evaluated for labeling. The test include the following treatments: […], treatments 3-4 of EGF-IRDye® 700DX at 0.5 μM and radiation, treatments 5-6 of IRDye® 700DX NHSe at 5 μM and radiation, treatments 7-8 of panitumumab-IRDye® 700DX at about 0.1 μM and radiation, treatment 9 of a negative control with no probe and no irradiation, and treatment 10 of RGD-IRDye® 700DX and no irradiation. The probes were incubated for about 10 minutes and with a longer period of about 20 minutes for the RGD probe. The cells were monitored with microscopy and morphology was examination 24 hours post treatment.
Low binding was expected for the RGD probe due to the low level of integrin receptors on A431 cells. […] By 3 hours post-irradiation all treatments except RGD (Treatment 1) show significant cytotoxicity. Vitality, viability and necrosis assays such as a VB-48 assay and JC-1 assay were performed.

[9] = 0.1 μM, Irradiation about 32 J/cm^2
[10] = 0.25 μM, Irradiation about 32 J/cm^2
[11] = 0.5 μM, Irradiation about 32 J/cm^2
[12] = 1 μM, Irradiation about 32 J/cm^2
[13] = 32 J/cm^2, probe about 5 hours, 20 hours post irradiation, 700DX-RGD and 700DX-EGF 500 nM
[14] = no irradiation (NI), 700DX-EGF 0.5 μM

B1: 700DX-EGF (conjugate, UniProt P01133 23-1207, looked up)
Pro-epidermal growth factor: PQHWSCPEGTLAGNGNSTCVGPAPFLIFSHGNSIFRIDTEGTNYEQLVVDAGVSVIMDFHYNEKRIYWVDLERQLLQRVFLNGSRQERVCNIEKNVSGMAINWINEEVIWSNQQEGIITVTDMKGNNSHILLSALKYPANVAVDPVERFIFWSSEVAGSLYRADLDGVGVKALLETSEKITAVSLDVLDKRLFWIQYNREGSNSLICSCDYDGGSVHISKHPTQHNLFAMSLFGDRIFYSTWKMKTIWIANKHTGKDMVRINLHSSFVPLGELKVVHPLAQPKAEDDTWEPEQKLCKLRKGNCSSTVCGQDLQSHLCMCAEGYALSRDRKYCEDVNECAFWNHGCTLGCKNTPGSYYCTCPVGFVLLPDGKRCHQLVSCPRNVSECSHDCVLTSEGPLCFCPEGSVLERDGKTCSGCSSPDNGGCSQLCVPLSPVSWECDCFPGYDLQLDEKSCAASGPQPFLLFANSQDIRHMHFDGTDYGTLLSQQMGMVYALDHDPVENKIYFAHTALKWIERANMDGSQRERLIEEGVDVPEGLAVDWIGRRFYWTDRGKSLIGRSDLNGKRSKIITKENISQPRGIAVHPMAKRLFWTDTGINPRIESSSLQGLGRLVIASSDLIWPSGITIDFLTDKLYWCDAKQSVIEMANLDGSKRRRLTQNDVGHPFAVAVFEDYVWFSDWAMPSVMRVNKRTGKDRVRLQGSMLKPSSLVVVHPLAKPGADPCLYQNGGCEHICKKRLGTAWCSCREGFMKASDGKTCLALDGHQLLAGGEVDLKNQVTPLDILSKTRVSEDNITESQHMLVAEIMVSDQDDCAPVGCSMYARCISEGEDATCQCLKGFAGDGKLCSDIDECEMGVPVCPPASSKCINTEGGYVCRCSEGYQGDGIHCLDIDECQLGEHSCGENASCTNTEGGYTCMCAGRLSEPGLICPDSTPPPHLREDDHHYSVRNSDSECPLSHDGYCLHDGVCMYIEALDKYACNCVVGYIGERCQYRDLKWWELRHAGHGQQQKVIVVAVCVVVLVMLLLLSLWGAHYYRTQKLLSKNPKNPYEESSRDVRSRRPADTEDGMSSCPQPWFVVIKEHQDLKNGGQPVAGEDGQAADGSMQPTSWRQEPQLCGMGTEQGCWIPVSSDKGSCPQVMERSFHMPSYGTQTLEGGVEKPHSLLSANPLWQQRALDPPHQMELTQ
modifications: Pro-epidermal growth factor IRDye 700DX conjugate
HTB-186 cells [1]
  Caspase 3 % late apoptotic + dead cells: 46%
A431 cells [2]; [9]
  % Healthy: 72%
  % Necrotic: 10%
  Cells/mL: 4.6 × 10^5 Cells/mL
  Early % Apoptotic: 8%
  Late % Apoptotic: 11%
A431 cells [2]; [10]
  % Healthy: 61%
  % Necrotic: 16%
  Cells/mL: 4.8 × 10^5 Cells/mL
  Early % Apoptotic: 5%
  Late % Apoptotic: 18%
A431 cells [2]; [11]
  % Healthy: 52%
  % Necrotic: 17%
  Cells/mL: 4 × 10^5 Cells/mL
  Early % Apoptotic: 6%
  Late % Apoptotic: 26%
A431 cells [2]; [12]
  % Healthy: 52%
  % Necrotic: 15%
  Cells/mL: 4 × 10^5 Cells/mL
  Early % Apoptotic: 9%
  Late % Apoptotic: 24%
A431 cells [2]; 1 μM, No Irradiation
  % Healthy: 87%
  % Necrotic: 3%
  Cells/mL: 5.4 × 10^5 Cells/mL
  Early % Apoptotic: 6%
  Late % Apoptotic: 4%
A431 cells [2]; irradiating light at about 32 J/cm^2
  mode of cell death: undergo apoptosis
A431 cells [3]; 10 min incubation, panitumumab probe about 0.1 μM, EGF probe 0.5 μM, 24 hours post irradiation
  dead irradiated cells: 36%
A431 cells [3]; irradiation 24 J/cm^2 (figure legend)
  necrotic cells after irradiation: 36%
A431 cells [4]; 24 h post irradiation
  cytotoxicity by cell viability: only the probe treated with irradiation induced cytotoxicity
A431 cells [4]; irradiation 16 J/cm^2
  effect on cell morphology: dramatically altered with condensation of nuclei and cell dehydration
A431 cells [4]; no irradiation (NI)
  effect on cell morphology: no deleterious effect on cell morphology
HTB-186 cells [5]
  JC-1 % shift: 42%
HTB-186 cells [6]; 32 J/cm^2, 20 h post irradiation
  cell morphology: appeared rounded and smaller
HTB-186 cells [6]; [13]
  % Viability: 75.7%
  Cell #: 0.7E6
A431 cells [7]; irradiated 10 minutes, 32 J/cm^2
  effect on cells (morphology): severely affected by the irradiating energy and were dying
A431 cells [7]; irradiated (I) 10 minutes, 32 J/cm^2, 700DX-EGF 0.5 μM, 700DX-Pan about 0.1 μM
  Cells/mL: 2.8 × 10^5 Cells/mL and 4.1 × 10^5 Cells/mL and 3.8 × 10^5 Cells/mL
A431 cells [7]; [14]
  % Vitality: 97.9% and 98.3% and 96.0%
  Cells/mL: 6.6 × 10^5 Cells/mL and 8.0 × 10^5 Cells/mL and 7.7 × 10^5 Cells/mL
  VB-48 % necrotic: 11% and 12% and 10%
A431 cells [8]
  % Healthy: 60%
  % Necrotic: 20%
  Cells/mL: 3.4 × 10^5 Cells/mL
  Est % Viability: 60-70%
  Low % Vitality: 19%

Source: patent publication US10588972B2, “Phthalocyanine probes and uses thereof” (LI-COR, INC., priority 2014, dated 2020)
